Target: tetanus toxoid (RIT, Smith Kline Beecham) (Clostridium tetani, UniProt P04958 2-1315)
Test: ELISA by the procedure of Friguet et al.

Sequence of tetanus toxoid (RIT, Smith Kline Beecham) (P04958 2-457 limits assumed, chain 1 of 2): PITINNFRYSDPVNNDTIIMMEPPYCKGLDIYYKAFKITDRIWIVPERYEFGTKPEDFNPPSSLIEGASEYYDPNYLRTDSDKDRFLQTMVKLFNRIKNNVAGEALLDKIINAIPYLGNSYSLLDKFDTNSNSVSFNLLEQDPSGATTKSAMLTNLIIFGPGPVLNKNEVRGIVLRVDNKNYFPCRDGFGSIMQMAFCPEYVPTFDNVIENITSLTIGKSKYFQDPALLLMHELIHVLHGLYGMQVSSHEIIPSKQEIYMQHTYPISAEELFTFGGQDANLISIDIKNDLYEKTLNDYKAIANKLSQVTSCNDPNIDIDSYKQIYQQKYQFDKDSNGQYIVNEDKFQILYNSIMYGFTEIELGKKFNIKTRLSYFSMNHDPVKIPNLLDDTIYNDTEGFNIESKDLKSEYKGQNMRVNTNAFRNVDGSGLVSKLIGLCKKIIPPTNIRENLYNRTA
Sequence of tetanus toxoid (RIT, Smith Kline Beecham) (P04958 458-1315 limits assumed, chain 2 of 2): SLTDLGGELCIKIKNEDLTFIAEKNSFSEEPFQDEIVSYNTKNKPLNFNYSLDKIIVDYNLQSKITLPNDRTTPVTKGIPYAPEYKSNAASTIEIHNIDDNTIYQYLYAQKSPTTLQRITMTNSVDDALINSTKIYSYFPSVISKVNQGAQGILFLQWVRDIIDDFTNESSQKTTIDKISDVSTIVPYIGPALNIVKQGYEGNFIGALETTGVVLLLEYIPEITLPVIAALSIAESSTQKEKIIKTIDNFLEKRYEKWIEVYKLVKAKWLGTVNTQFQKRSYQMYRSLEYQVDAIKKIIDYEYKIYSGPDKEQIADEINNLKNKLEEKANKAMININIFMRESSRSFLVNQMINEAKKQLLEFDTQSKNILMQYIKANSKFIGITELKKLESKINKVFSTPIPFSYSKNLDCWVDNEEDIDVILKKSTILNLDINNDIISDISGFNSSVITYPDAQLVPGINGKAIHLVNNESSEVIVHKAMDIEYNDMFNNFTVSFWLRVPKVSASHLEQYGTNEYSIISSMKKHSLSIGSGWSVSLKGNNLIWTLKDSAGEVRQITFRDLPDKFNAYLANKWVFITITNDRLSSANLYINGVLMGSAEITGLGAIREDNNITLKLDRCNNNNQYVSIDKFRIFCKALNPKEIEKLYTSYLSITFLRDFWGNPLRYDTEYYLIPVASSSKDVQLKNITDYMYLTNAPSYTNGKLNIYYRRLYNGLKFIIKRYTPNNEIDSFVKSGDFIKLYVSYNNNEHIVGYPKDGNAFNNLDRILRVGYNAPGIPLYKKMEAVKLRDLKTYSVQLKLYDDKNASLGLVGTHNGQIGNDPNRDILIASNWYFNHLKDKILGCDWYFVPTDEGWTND

Binder	Ka [M⁻¹]
camel VHH αTT2 (anti-tetanus toxoid) (VHH) VHH: EVQLQASGGGSVQAGGSLRLSCTAANYAFDSKTVGWFRQVPGKEREGVAGISSGGSTTAYSDSVKGRYTVSLENAKNTVYLLIDNLQPEDTAIYYCAGVSGWRGRQWLLLAETYRFWGQGTQVTVSS	2e+07
camel VHH αTT1 (anti-tetanus toxoid) (VHH) VHH: EVQLQASGGGSVQAGGSLRLSCAASGGQTFDSYAMAWFRQAPGKECELVSSIIGDDNRNYADSVKGRFTISRDNAKNTVYLQMDRLNPEDTAVYYCAQLGSARSAMYCAGQGTQVTVSS	6e+07

From patent US7655759 (VRIJE UNIVERSITEIT BRUSSEL, dated 2010)
